Measurements reported in article PMC9258132, “Multi-omics profiling identifies a deregulated FUS-MAP1B axis in ALS/FTD–associated UBQLN2 mutants”.

Target: MBP-FUS-His6 WT (UniProt P35637 1-526)
Assay: EMSA; 5 mM MgCl2, 0.1 mg/ml yeast tRNA; 5 nM RNA, 0-10 uM protein; 20 mM NaPO4 pH 8, 150 mM NaCl, 5% glycerol, 1 mM DTT, 5 mM MgCl2, 0.5 mg/ml BSA, 0.1 mg/ml yeast tRNA, 1 U/ul RNase inhibitor, 20 min RT; 6% native PAGE in 0.5x TBE
Settings: protein: recombinant; tags: N-terminal MBP, C-terminal His6; hairpin with 3' single-stranded tail

MBP-FUS-His6 WT, sequence (P35637 whole entry): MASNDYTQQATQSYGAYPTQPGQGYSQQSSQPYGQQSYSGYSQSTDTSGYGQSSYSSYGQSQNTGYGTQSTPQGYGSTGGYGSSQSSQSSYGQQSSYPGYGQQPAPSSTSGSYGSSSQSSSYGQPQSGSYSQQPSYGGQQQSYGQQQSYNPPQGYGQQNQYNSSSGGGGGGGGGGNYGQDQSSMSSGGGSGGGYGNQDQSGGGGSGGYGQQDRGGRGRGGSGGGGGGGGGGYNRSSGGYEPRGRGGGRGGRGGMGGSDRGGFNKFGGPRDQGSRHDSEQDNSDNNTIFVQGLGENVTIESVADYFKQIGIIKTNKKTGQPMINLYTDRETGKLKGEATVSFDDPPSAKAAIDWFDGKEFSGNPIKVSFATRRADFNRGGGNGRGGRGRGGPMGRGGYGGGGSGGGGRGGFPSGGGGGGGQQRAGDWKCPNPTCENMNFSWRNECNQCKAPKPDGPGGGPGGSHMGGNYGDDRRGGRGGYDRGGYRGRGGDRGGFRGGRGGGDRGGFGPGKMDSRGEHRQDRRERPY

GGAUCUUUAACUACUCAAGAUACUGAACAUGACAUGGUA (structured_RNA) [SON pre-mRNA stem loop with downstream GGU motif]
binding result: binds
